Results: the supplement of paper PMC12764529
± gives the half width of the 95% confidence interval.

Tests used:
[1] = folding stability dG unfold from trypsin proteolysis; higher = more stable
Outline: (§1)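 Designed mini-proteins (under 80 residues, no cysteine) in a PA-tagged cDNA display construct were digested with trypsin and chymotrypsin. Each protease was used at 11 concentrations (threefold dilutions) plus a no-protease condition, followed by sequencing. K50 was inferred by Bayesian fitting of sequencing counts, and unfolding free energy was derived against a sequence-predicted unfolded-state K50 and a shared folded-state K50, per protease or combined. Only designs with AlphaFold2 dimer inter-PAE above 15 were kept.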

[2] = folding stability dG unfold from chymotrypsin proteolysis; higher = more stable
Outline: as §1

[3] = folding stability dG unfold (combined trypsin and chymotrypsin); higher = more stable
Outline: as §1

Sequence	folding stability dG unfold [1] [kcal/mol]	folding stability dG unfold [2] [kcal/mol]	folding stability dG unfold [3] [kcal/mol]
SAGGKYVIIMFPLPPNLEVEIEYPGVPVHRTPNGSLMFQIPPNEPIRIKIKNPNGEEEELPINIFPLSAGGS [r8_72_TrROS]	1.77 ± 0.1	2.33 ± 0.1	2.2 ± 0.2
SAGGKYVMFPFDSPEDLKDLLPPGYPVEIHMMPPKGKHRTRTFTPDEIKLELPPGENFYFMIKVKPPDSAGG [r13_461_TrROS]	1.55 ± 0.16	1.94 ± 0.33	1.74 ± 0.2
SAGGLAKAVAEELGLPELKVKEVRFAPDPAGPGLTVEVVFELPDGSYLRVEVRFHPDRIEIKAVPLPPSAGG [r19_392_TrMRF]	2.09 ± 0.093	3.65 ± 0.15	3.23 ± 0.15
SAGGLEEIAEKIAEELKKKGYKAEIKEVVKPPTNEVVIKYTVTYKDKNEIIEEEEKEITFKLPPGLESAGGS [r8_102_JUSTAS]	-0.556 ± 0.16	0.741 ± 0.14	0.377 ± 0.16
SAGGLEEKILEAVKNMSPEEPVVEREVELPDGKLKVTVTRDGLPYTVTITRTNPDGTTTTTTTTILLSAGGS [r16_642_JUSTAS]	2.46 ± 0.16	2.37 ± 0.046	2.34 ± 0.12
SAGGLEELAKEIADDLQKRNPDMNIEVQVEVHEYKIPPGQKMRHPDGEEKEVPPGQKVYMFTIRVTPSAGGS [r16_357_TrROS]	0.758 ± 0.11	1.26 ± 0.27	1.17 ± 0.21
SAGGLEIDTSDGNVKVTKVSTKTTVEKDPTNPDRYRIITSKEIKTEPVKPPDVKEGPPIGLNNPELLSAGGS [r16_395_JUSTAS]	0.475 ± 0.2	0.418 ± 0.47	0.165 ± 0.49
SAGGLEIEVFNEKGEPVEVRLRRKEDDTLELEVRFRDASGREYRARATVRVKETEIELGEVDEWEELESAGG [r13_451_TrMRF]	2.19 ± 0.09	1.84 ± 0.082	2.21 ± 0.26
SAGGLENLENFELVETLTVKLPNGDKPVTLTLYRHPDGPAENVTSYEGKKYVFVVTDDSIEFFEGGTSAGGS [r16_711_TrMRF]	0.0263 ± 0.044	1.24 ± 0.16	0.81 ± 0.15
SAGGLGTDSTVPTLTLSVPVLVPTADGSPRELTVRVTIRAPVRLNPPTGELEIGDVEVSVEVFDPSLLSAGG [r13_312_TrMRF]	3.03 ± 0.11	3.73 ± 0.11	3.37 ± 0.13
SAGGLIEKLKELGFEIVSVEEREETLPNGKKVRTVKITVKLPNGELVKIEVRVLPNGEVIIKIEVKKPSAGG [r13_818_TrROS_Hall]	3.72 ± 0.15	3.17 ± 0.89	3.55 ± 0.27
SAGGLKIPVGSAEDALKAFEAIEEPVLVRTKDRKFVRELKLEDIKELVEKGVEFEFVLPSELPEEERKESAG [r5_677_TrMRF]	0.574 ± 0.07	0.573 ± 0.21	0.566 ± 0.39
SAGGLLPALLAPGFRKPPELPLVVVEAPIEEAVALAKENPSLGVLLVRVGGKLYLIDPKTGKVAPLGSAGGS [r16_214_TrMRF]	0.767 ± 0.018	1.6 ± 0.033	1.32 ± 0.056
SAGGLLVVLPPDLTPEELREKALELAELARKAGDFEVERIELVRDEETDRPYAVLVIRDPRTGKILVASAGG [r13_669_TrMRF]	1.39 ± 0.014	1.05 ± 0.062	1.23 ± 0.042
SAGGLNINLPPGQEIELTLQVTHLFNGGNGDFGSMTHTYEIPIKIKPIPPVPKPEVERDPDGNYKVEDSAGG [r13_401_TrROS]	-0.0612 ± 0.076	0.358 ± 0.26	0.296 ± 0.28
SAGGLPELLKALGLPVTSVRSVPVLLPGGRPALVTFVEFEDPEGERYRLVVVRLPNGEVLVRVERLDPSAGG [r13_818_TrMRF]	3.39 ± 0.15	4.9 ± 0.12	4.53 ± 0.1
SAGGLPPEIKVEISFTPDPATGKWRGTVTAFDPVTGKTVTVPVTSDTPEELRARLEAAAAAVAAALASAGGS [r8_480_JUSTAS]	3.03 ± 0.098	4.36 ± 0.12	4.08 ± 0.14
SAGGLTVTLTDSSGNPVTVETELLPDNTLVLTITRTTPSGKTYTRTGIVSIDNTTINLVSFSEWTEDPSAGG [r13_451_JUSTAS]	2.79 ± 0.097	3.25 ± 0.08	3.02 ± 0.16

Sequence	folding stability dG unfold [1] [kcal/mol]	folding stability dG unfold [2] [kcal/mol]	folding stability dG unfold [3] [kcal/mol]
SAGGLTWEEAREIAEEIANMEVPSPNGMPMKVKVDIEIDPPNGYFRVDVKVEMPGKPQKFPLEIPLKSAGGS [r16_812_TrROS]	0.607 ± 0.16	0.536 ± 0.17	0.673 ± 0.25
SAGGMAEEVAEAVRDFFESQGLPAEVEPLSVHPNNLVVYRFRVPGYYALVVADPDNPVVVVTVYPLPSAGGS [r8_157_TrMRF]	2.46 ± 0.13	3.45 ± 0.049	3.08 ± 0.14
SAGGMAIKDVRVEGGVLYVYRGDKLVAKIEPGAAQPPVLVRFPDGTVVAVPRSVALALNPETLEFFDVSAGG [r13_802_TrMRF]	1.24 ± 0.032	1.44 ± 0.087	1.43 ± 0.043
SAGGMEEIEPVTITITVVDEETGEKVEIKITVPKEEITRIEIKPDGTIRIYFKENNEVIEIKLEDIKSAGGS [r16_410_TrROS_Hall]	2.99 ± 0.24	4.22 ± 0.19	4.16 ± 0.32
SAGGMEFEFTREDGRKTRVELEVNPETGEVTEKIYVGGKLLYTFKDGELKYIPDEVAAARIEARLPPESAGG [r13_958_TrMRF]	-0.0213 ± 0.12	1.84 ± 0.079	1.45 ± 0.11
SAGGMEIKIEKEGNKIKITIKNENGEIEEFEITLKDGKKYRIIIDKDNPNTIYIVDEKTGKTIVLKASAGGS [r16_198_TrROS_Hall]	4.6 ± 0.64	4.55 ± 0.11	4.71 ± 0.3
SAGGMEIVSSGSLEEAIALLKENPNTTITVTLPDGTTVVIKVTQNGEGPYIYDVSTEPPAAAPSPSLVSAGG [r13_56_JUSTAS]	2.15 ± 0.096	1.1 ± 0.038	1.66 ± 0.079
SAGGMEKAIKEIKEAAKKGEEAVIVLPKNVDPSELISAIEKETGAKVEPLEVKPLPNGELVIKIKVKSAGGS [r16_318_TrMRF]	1.44 ± 0.1	2.23 ± 0.16	1.89 ± 0.12
SAGGMELVGEYEVELPDVPIRFPVYRVPEAGLVVVEAERYDPSTGEWTPLGVVPLPEGSAEEALKALSAGGS [r8_423_TrMRF]	1.21 ± 0.034	0.334 ± 0.089	0.864 ± 0.061
SAGGMELVIAVNSKEEAKKAAEEIKKKTPKGFKLEIEIEEYDLKENVEPEDKDIENIKVYLIKVKLESAGGS [r16_795_TrMRF]	1.4 ± 0.13	2.01 ± 0.21	1.69 ± 0.23
SAGGMELVSRKRLSTSADGSVTYLYEYYDPKTGKRYTLVVTVKTPDGKIKPKVFTADSEEEAKKIALESAGG [r13_26_JUSTAS]	1.1 ± 0.06	1.56 ± 0.16	1.34 ± 0.11
SAGGMEPIEIPAKVKITHNGKEQEYPLENVTIWPMPDGMYMIYNPDKGEMFFINPKNGRLMRIEIDDSAGGS [r16_721_TrROS]	0.94 ± 0.092	2.5 ± 0.15	1.99 ± 0.19
SAGGMERKTLTVNVPASVPASELLSLLEGYGDVLLVLGNGEVLHIKRDDAPGLEGLPLSDDDVLELYYSAGG [r13_399_TrMRF]	-0.696 ± 0.14	1.23 ± 0.059	0.802 ± 0.075
SAGGMEVKEISIPVPENLTPEQAVEKVKELFEKHPELEHVLVYFELPNGKPLVVEVDKNGKITKVEEKSAGG [r13_690_TrMRF]	0.889 ± 0.041	2.28 ± 0.048	1.88 ± 0.095
SAGGMEVREIDVENEDGHNVKIEIWWMPGEGWIMVKIEGPNPALIDDIQKEIGLPILEVMKDGYLMIKSAGG [r13_937_TrROS]	1.16 ± 0.03	2.6 ± 0.033	2.22 ± 0.091
SAGGMEVVEIKYDPETGTVTVTVAIPESLSFDEVAPEVEALVKEKTGRPVEITVDPATGTVTATVPRSAGGS [r8_314_JUSTAS]	0.832 ± 0.031	1.39 ± 0.058	1.15 ± 0.072
SAGGMFKVYEVTGKDAKVTIVEAPLPDGGKLVVVEVWEGGKPVKPFLVPVAELEEIAKAIGIKPEELKSAGG [r13_108_TrMRF]	1.05 ± 0.027	1.9 ± 0.082	1.58 ± 0.14
SAGGMGFEKVGTFKLEDDVIVEIYKGPEKKLVAKVYFPKTGKVIEDPGHPDESIEELIERIKAIAEEESAGG [r13_624_TrMRF]	4.48 ± 0.39	4.32 ± 0.07	4.2 ± 0.28
